This passage reports Kd results from patent CN111138537A (REYOUNG (SUZHOU) BIOPHARMACEUTICAL CO LTD, dated 2020).

The target of the assay is T1, 人血清白蛋白 (human, UniProt P02768 25-609).
T1 construct: also called HSA; human serum albumin
Nature of the assay: SPR (Biacore T200), HSA amine-coupled to CM5 chip, NB22 as analyte.

B1: 单域抗体NB22 (VHH)
VHH: QVQLQESGGGSVQAGGSLRLSCAASAYTYSTTCMAWFRQAPGKEREKVATITTGGTYPYYADSVKGRFTISQDNAKNTVYLQMNSLKPEDTAMYYCAADASWGCRLSGSWSTVYNYWGQGTQVTVSS
notes: Camel (Bactrian) VHH from a phage display library; expressed in E. coli periplasm with a C-terminal 6x His tag and nickel-purified; also called 抗人血清白蛋白单域抗体
As a reminder, the Kd is a measure of binding affinity in units of concentration. A low value points to tighter binding. As for B1, the affinity, expressed as Kd, was 0.683 nM.
